Measured values as given in patent US20210253733A1 (ONCORESPONSE, published 2021).

Experiments:
[1] = molecular target: T1, human CD163 expressed on human myeloid cells (M2c macrophages, M2 macrophages, in vitro MDSCs) (human, UniProt Q86VB7 42-1114); assay: flow cytometry, AF647-conjugated AB102 on polarized M2c macrophages without siRNA
T1 construct: Endogenous CD163 on primary human monocyte-derived cells; also called huCD163; CD163^Hi cells
Experimental: The macrophage detachment solution was replaced with cold PBS−/− (PBS without calcium and magnesium; Hyclone No. SH30028.02) containing 0.2 mM EDTA and 0.1% HSA. The cells were spun down at 650×g for 5 min and then resuspended in 0.5 mL cold Block solution (FACS buffer+10% NGS+10 μg of human IgG Fc fragment protein (Abcam No. ab90285)) per million cells. The cells were counted and an average of 1×10⁶ per mL was used for further calculations. The cells were incubated at RT for 15 min (to increase FcR binding), followed by a 30 min incubation on ice for full blocking. An aliquot of unstained cells was set aside for compensation controls. e780 viability dye (ThermoFisher eBioscience No. 65-0865-18) was added to the remainder at a final dilution of 1:1000. Cells were aliquoted into 96-well plates (40 μL per well), and 10 μL of antibody solution was added to each well. Antibodies were prepared with a starting concentration of 100 μg/mL in FACS buffer and serially diluted in FACS buffer. After addition of antibodies, each set of cells was tested with an antibody panel (AB101 in FcNull framework conjugated to AF647 and commercial anti-CD163 conjugated to BV421 [BioLegend No. 333612]) and an isotype panel (ISO2 in FcNull framework conjugated to AF647 and commercial mIgG1 conjugated to BV421). […] Cells were then analyzed by flow cytometry on a BD Canto II machine.

[2] = molecular target: T2, His-tagged recombinant human CD163 (R&D Systems, No. 1607-CD-050) (human, UniProt Q86VB7 46-1050); assay: ELISA, plate coated with 5 ug/mL His-tagged recombinant human CD163, HRP anti-human IgG F(ab')2, A450
T2 construct: Bought protein; also called huCD163; not shown: His tag
Experimental: AB101 binding to His-tagged recombinant human CD163 (R&D Systems, No. 1607-CD-050) and recombinant murine CD163 (R&D Systems, No. 7435-CD-050) proteins was determined using ELISA. Recombinant proteins were diluted in PBS to 5 μg/mL and added to 384-well High binding ELISA plates (Greiner Bio-One, No. 781061) at 25 μL per well and incubated at 4° C. overnight. The plates were washed three times with PBS, using the BioTek ELx405 Select microplate washer (wash program ELISA_384_PBS_3×_wash) and then blocked with 90 μL/well of blocking buffer (2% nonfat, dry milk/PBS+0.05% Tween 20) for 1 hr at RT.
After blocking, 25 μL per well of primary antibodies were added to the plates and incubated for 1 hr at room temp. The test antibody was AB101; the control anti-huCD163 antibody was a commercially available antibody in murine IgG1 framework (R&D Systems, #MAB1607); the isotype controls were a proprietary mAb, in human IgG1, human FcNull, and murine IgG1 frameworks, with known specificity. After primary antibody binding, plates were washed three times with PBS using the EL405× (wash program ELISA_384_PBS_3×_wash). […] After development, the reaction was stopped by adding 25 μL per well of 0.3 M HCl and plates were read using the SpectraMax M5e instrument at 450 nm.

T1 sequence (Q86VB7 other isoform, or with tags, fused parts or gaps limits assumed): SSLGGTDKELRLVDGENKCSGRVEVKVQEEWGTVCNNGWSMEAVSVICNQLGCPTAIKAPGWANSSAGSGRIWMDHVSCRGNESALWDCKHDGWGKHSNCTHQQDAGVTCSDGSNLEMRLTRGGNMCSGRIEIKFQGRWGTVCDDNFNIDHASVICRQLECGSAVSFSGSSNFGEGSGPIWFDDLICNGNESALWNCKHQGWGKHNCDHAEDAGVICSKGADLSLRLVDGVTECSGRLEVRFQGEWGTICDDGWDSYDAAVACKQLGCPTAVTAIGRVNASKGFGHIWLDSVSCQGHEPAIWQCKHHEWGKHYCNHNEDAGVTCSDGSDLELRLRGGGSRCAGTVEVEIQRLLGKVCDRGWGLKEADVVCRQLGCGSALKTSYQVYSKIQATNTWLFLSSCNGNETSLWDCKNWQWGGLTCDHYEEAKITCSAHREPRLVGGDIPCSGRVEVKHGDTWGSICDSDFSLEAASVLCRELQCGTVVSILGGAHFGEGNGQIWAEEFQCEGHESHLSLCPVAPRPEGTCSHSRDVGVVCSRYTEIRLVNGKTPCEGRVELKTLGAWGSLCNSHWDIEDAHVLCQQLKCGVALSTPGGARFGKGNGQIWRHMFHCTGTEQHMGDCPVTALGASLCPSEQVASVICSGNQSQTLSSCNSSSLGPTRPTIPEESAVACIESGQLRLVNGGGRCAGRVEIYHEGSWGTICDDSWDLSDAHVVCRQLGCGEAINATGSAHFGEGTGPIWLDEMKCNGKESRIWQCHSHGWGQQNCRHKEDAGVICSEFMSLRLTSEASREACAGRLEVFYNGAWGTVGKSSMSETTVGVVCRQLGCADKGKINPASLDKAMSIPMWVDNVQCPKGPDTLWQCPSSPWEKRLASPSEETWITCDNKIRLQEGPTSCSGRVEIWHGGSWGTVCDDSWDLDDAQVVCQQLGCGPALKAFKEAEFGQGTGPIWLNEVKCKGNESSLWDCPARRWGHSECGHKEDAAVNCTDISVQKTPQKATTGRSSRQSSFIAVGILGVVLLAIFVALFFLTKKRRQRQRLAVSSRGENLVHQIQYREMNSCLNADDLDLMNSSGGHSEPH
T2 sequence (Q86VB7 46-1050 limits assumed): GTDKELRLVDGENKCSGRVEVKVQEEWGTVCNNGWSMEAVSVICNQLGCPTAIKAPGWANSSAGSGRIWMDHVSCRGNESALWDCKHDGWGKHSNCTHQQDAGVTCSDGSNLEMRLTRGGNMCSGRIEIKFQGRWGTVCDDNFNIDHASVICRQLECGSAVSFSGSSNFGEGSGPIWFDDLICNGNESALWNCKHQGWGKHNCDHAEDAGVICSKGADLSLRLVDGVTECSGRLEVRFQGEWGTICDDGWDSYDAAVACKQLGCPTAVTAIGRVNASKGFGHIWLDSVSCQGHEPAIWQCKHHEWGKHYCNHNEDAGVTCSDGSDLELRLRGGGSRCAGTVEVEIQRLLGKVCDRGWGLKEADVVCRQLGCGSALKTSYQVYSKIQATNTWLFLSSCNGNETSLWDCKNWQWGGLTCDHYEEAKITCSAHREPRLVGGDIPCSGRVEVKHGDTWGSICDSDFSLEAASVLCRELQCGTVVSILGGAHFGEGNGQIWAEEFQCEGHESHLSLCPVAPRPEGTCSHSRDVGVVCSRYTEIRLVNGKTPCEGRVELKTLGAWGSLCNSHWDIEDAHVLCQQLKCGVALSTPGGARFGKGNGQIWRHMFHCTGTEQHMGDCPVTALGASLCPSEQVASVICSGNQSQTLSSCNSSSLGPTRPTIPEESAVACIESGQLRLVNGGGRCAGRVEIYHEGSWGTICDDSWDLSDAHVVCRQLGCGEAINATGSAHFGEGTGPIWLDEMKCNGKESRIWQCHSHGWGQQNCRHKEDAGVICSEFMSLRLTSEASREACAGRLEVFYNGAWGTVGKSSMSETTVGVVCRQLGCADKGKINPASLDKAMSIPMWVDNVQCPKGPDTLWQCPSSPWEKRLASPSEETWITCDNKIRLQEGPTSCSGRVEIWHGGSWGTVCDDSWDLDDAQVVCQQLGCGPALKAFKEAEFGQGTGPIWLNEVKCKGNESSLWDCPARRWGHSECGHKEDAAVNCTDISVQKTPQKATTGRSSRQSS

EC50 (read off the curve) [1]: ~10 nM
EC50 (read off the curve) [2]: ~1 nM
B1: AB102 (antibody, human IgG1, kappa)
light: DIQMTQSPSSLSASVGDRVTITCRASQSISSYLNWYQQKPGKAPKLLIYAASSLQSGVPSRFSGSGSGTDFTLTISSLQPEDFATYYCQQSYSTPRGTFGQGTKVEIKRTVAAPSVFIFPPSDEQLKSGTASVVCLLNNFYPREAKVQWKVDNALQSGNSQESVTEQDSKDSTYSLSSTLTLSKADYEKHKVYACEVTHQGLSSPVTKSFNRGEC
heavy: EVQLVESGGGVVQPGRSLRLSCAASGFTFSSYAMHWVRQAPGKGLEWVAVISYDGSNKYYADSVKGRFTISRDNSKNTLYLQMNSLRAEDTAVYYCARENVRPYYDFWSGYYSEYYYYGMDVWGQGTTVTVSSASTKGPSVFPLAPSSKSTSGGTAALGCLVKDYFPEPVTVSWNSGALTSGVHTFPAVLQSSGLYSLSSVVTVPSSSLGTQTYICNVNHKPSNTKVDKRVEPKSCDKTHTCPPCPAPEFEGGPSVFLFPPKPKDTLMISRTPEVTCVVVDVSHEDPEVKFNWYVDGVEVHNAKTKPREEQYNSTYRVVSVLTVLHQDWLNGKEYKCKVSNKALPASIEKTISKAKGQPREPQVYTLPPSREEMTKNQVSLTCLVKGFYPSDIAVEWESNGQPENNYKTTPPVLDSDGSFFLYSKLTVDKSRWQQGNVFSCSVMHEALHNHYTQKSLSLSPGK
notes: Biotinylated for the PFA immunoprecipitation and AF647 conjugated for flow cytometry; also called AB101 FcNull antibody; AB101 in FcNull framework; copies: 2 + 2
